Assay results taken from article PMC1847684, “Isolation and functional characterization of a cDNA coding a hydroxycinnamoyltransferase involved in phenylpropanoid biosynthesis in Cynara cardunculus L” (BMC Plant Biology, 2007).

Assays:
Test in all cases: HPLC product assay, Lineweaver-Burk
Assay type in all cases: biochemical, Cynara cardunculus
[1] = substrate: CC(C)(COP(=O)(O)OP(=O)(O)OC[C@H]1O[C@@H](n2cnc3c(N)ncnc32)[C@H](O)[C@@H]1OP(=O)(O)O)[C@@H](O)C(=O)NCCC(=O)NCCSC(=O)/C=C/c1ccc(O)c(O)c1; settings: 20 mM quinate as acceptor, sodium phosphate pH 7.5, 1 mM DTT, 30 C
Description: (§1) HPLC product assay, Lineweaver-Burk on HCT (globe artichoke hydroxycinnamoyltransferase; CcHCT)

[2] = substrate: CC(C)(COP(=O)(O)OP(=O)(O)OC[C@H]1O[C@@H](n2cnc3c(N)ncnc32)[C@H](O)[C@@H]1OP(=O)(O)O)[C@@H](O)C(=O)NCCC(=O)NCCSC(=O)/C=C/c1ccc(O)cc1; settings: 20 mM quinate as acceptor, sodium phosphate pH 7.5, 1 mM DTT, 30 C, recombinant bacterial extract (discussion says purified, no purification described)
Description: as §1

[3] = substrate: O=C(O)[C@]1(O)C[C@@H](O)[C@@H](O)[C@H](O)C1; settings: 300 μM p-coumaroyl-CoA as donor, sodium phosphate pH 7.5, 1 mM DTT, 30 C
Description: as §1

B1: HCT (globe artichoke hydroxycinnamoyltransferase; CcHCT) (Cynara cardunculus) (protein)
chain: MKIEVRESTMVRPAEETPRINLWNSNVDLVVPNFHTPSVYFYRPNGAANFFDPKVMKDALSRALVPFYPMGGRLKRDEDGRIEIDCQGQGVLFVEAESDGVIDDFGDFAPTLELRKLIPAVDYTLGIESYSLLVLQVTYFKCGGVSLGVGMQHHAADGASGLHFINTWSDLARGLDLAVPPFIDRTLLRSRDPPQPAFDHIEYQPAPPMKTAPTPTPTDDESVPETTVSIFKLTRDQVNALKGKSKEDGNTVNYSSYEMLSGHVWRCVCKARGLPDDQDTKLYIATDGRARLRPSLPRGYFGNVIFTTTPIAVAGDLQSKPTWYAASKIHDALARMDDDYLKSALDYLELQPDLKALVRGAHTFKCPNLGITSWARLPIHDADFGWGRPIFMGPGGIAYEGLSFVLPSPINDGSLSIVISLQAEHMKLFSKFLYDI
notes: full-length ORF (1308 bp, 436 residues printed, ~50 kDa), pET3a NdeI/BamHI, no tag mentioned, E. coli BL21(DE3) pLysE at 28 C
[1]
  Km: 61.75 ± 0.004 µM
  Vmax: 0.0402 µmol/min/mg
  Vmax/Km: 600 µL/min/mg
[2]
  Km: 53.0 ± 13.0 µM
  Vmax: 0.132 µmol/min/mg
  Vmax/Km: 2460 µL/min/mg
[3]
  Km: 9200 ± 5600 µM
  Vmax: 0.126 µmol/min/mg
  Vmax/Km: 12 µL/min/mg
